Test results from PMC12207370, “Macrocyclic Peptide Probes for Immunomodulatory Protein CD59: Potent Modulators of Bacterial Toxin Activity and Antibody‐Dependent Cytotoxicity” (Angewandte Chemie (International Ed. in English), 2025).

Target: T1, biotinylated CD59 (Homo sapiens, UniProt P13987)
T1 construct: Recombinant soluble human CD59 with an additional C-terminal cysteine residue
T1 sequence (P13987 26-102 limits assumed): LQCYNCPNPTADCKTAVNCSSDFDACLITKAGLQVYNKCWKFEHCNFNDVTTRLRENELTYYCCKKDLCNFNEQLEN
Experiment: mRNA-display cyclic peptide screen against CD59-biotin, NGS abundance after 6th selection round
Settings: for Percentage Seq I: counts normalised by total counts of sample Seq I; for Percentage Seq I / Percentage Seq II: percentage of the pool; for Percentage Seq I / Percentage Seq II / Percentage Average / Percentage of the pool, averaged across the two sequencing samples / Percentage of the pool, Seq I / Percentage of the pool, Seq II: sheet R6; for Percentage Seq II: counts normalised by total counts of sample Seq II; for Percentage Average: percentage of the pool averaged across the two sequencing samples; for Counts Seq I / Counts Seq II: raw NGS counts of peptide sequence; for Counts Seq I: sequencing sample Seq I; for Counts Seq I / Counts Seq II / Counts (raw counts for peptide sequence), Seq I / Counts (raw counts for peptide sequence), Seq II: sheet R6 (6th selection round); for Counts Seq II: sequencing sample Seq II; for Counts (raw counts for peptide sequence), Seq I: NGS sample Seq I; for Counts (raw counts for peptide sequence), Seq II: NGS sample Seq II; for Percentage of the pool, averaged across the two sequencing samples: average of Seq I and Seq II; for Percentage of the pool, Seq I: counts normalised by total counts of NGS sample Seq I; for Percentage of the pool, Seq II: counts normalised by total counts of NGS sample Seq II
Procedure, shortened: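 Peptide–mRNA fusions were made by in vitro translation with a customised PURE express kit. The kit lacked release factor 1 and methionine and was supplemented with […] initiator tRNA carrying N-chloroacetyl-d-tyrosine. Thioether macrocycles were formed, then enriched and amplified over iterative rounds on CD59-biotin immobilised on streptavidin beads. NGS read counts per sequence were recorded after the 6th selection round.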

ILGSRDTIKYW
Percentage Seq I: 0.118% | Percentage Seq II: 0.167% | Percentage Average: 0.142% | Counts Seq I: 515 | Counts Seq II: 72

IQSGSQSWSRG
Percentage Seq I: 0.037% | Percentage Seq II: 0.035% | Percentage Average: 0.036% | Counts Seq I: 164 | Counts Seq II: 15

ISGGRNWRAG
Counts (raw counts for peptide sequence), Seq I: 65 | Counts (raw counts for peptide sequence), Seq II: 6 | Percentage of the pool, averaged across the two sequencing samples: 0.014% | Percentage of the pool, Seq I: 0.015% | Percentage of the pool, Seq II: 0.014%

ISRGDARYTWG
Percentage Seq I: 0.019% | Percentage Seq II: 0.023% | Percentage Average: 0.021% | Counts Seq I: 83 | Counts Seq II: 10

ISWGNGSLAFY
Percentage Seq I: 0.147% | Percentage Seq II: 0.116% | Percentage Average: 0.132% | Counts Seq I: 643 | Counts Seq II: 50

ISYGDRSYTYY
Percentage Seq I: 0.106% | Percentage Seq II: 0.121% | Percentage Average: 0.113% | Counts Seq I: 463 | Counts Seq II: 52

ITRGSNIYAYG
Counts (raw counts for peptide sequence), Seq I: 79 | Counts (raw counts for peptide sequence), Seq II: 6 | Percentage of the pool, averaged across the two sequencing samples: 0.016% | Percentage of the pool, Seq I: 0.018% | Percentage of the pool, Seq II: 0.014%

KWGSSFFTLYRV
Counts (raw counts for peptide sequence), Seq I: 49 | Counts (raw counts for peptide sequence), Seq II: 4 | Percentage of the pool, averaged across the two sequencing samples: 0.010% | Percentage of the pool, Seq I: 0.011% | Percentage of the pool, Seq II: 0.009%

LAWGNRQIQYY
Counts (raw counts for peptide sequence), Seq I: 78 | Counts (raw counts for peptide sequence), Seq II: 6 | Percentage of the pool, averaged across the two sequencing samples: 0.016% | Percentage of the pool, Seq I: 0.018% | Percentage of the pool, Seq II: 0.014%

LCAENPLRPR
Percentage Seq I: 0.075% | Percentage Seq II: 0.077% | Percentage Average: 0.076% | Counts Seq I: 329 | Counts Seq II: 33

LCSVRGSNDWI
Percentage Seq I: 0.073% | Percentage Seq II: 0.074% | Percentage Average: 0.074% | Counts Seq I: 320 | Counts Seq II: 32

LCYVKGSKDFT
Percentage Seq I: 0.027% | Percentage Seq II: 0.019% | Percentage Average: 0.023% | Counts Seq I: 120 | Counts Seq II: 8

LCYVKGSKNFT
Percentage Seq I: 0.088% | Percentage Seq II: 0.095% | Percentage Average: 0.092% | Counts Seq I: 385 | Counts Seq II: 41

LGGRGCFRPCSAAAAAAARTGGG
Percentage Seq I: 0.050% | Percentage Seq II: 0.042% | Percentage Average: 0.046% | Counts Seq I: 220 | Counts Seq II: 18

LKPNGRCLPKV
Percentage Seq I: 0.272% | Percentage Seq II: 0.283% | Percentage Average: 0.277% | Counts Seq I: 1189 | Counts Seq II: 122

LLGARDYVRLWH
Counts (raw counts for peptide sequence), Seq I: 41 | Counts (raw counts for peptide sequence), Seq II: 7 | Percentage of the pool, averaged across the two sequencing samples: 0.013% | Percentage of the pool, Seq I: 0.009% | Percentage of the pool, Seq II: 0.016%

LLGSSSYVKFWY
Percentage Seq I: 0.253% | Percentage Seq II: 0.265% | Percentage Average: 0.259% | Counts Seq I: 1105 | Counts Seq II: 114

LLGTRDYVRLWH
Percentage Seq I: 0.144% | Percentage Seq II: 0.139% | Percentage Average: 0.142% | Counts Seq I: 630 | Counts Seq II: 60

LNPQGHCLLKL
Counts (raw counts for peptide sequence), Seq I: 55 | Counts (raw counts for peptide sequence), Seq II: 8 | Percentage of the pool, averaged across the two sequencing samples: 0.016% | Percentage of the pool, Seq I: 0.013% | Percentage of the pool, Seq II: 0.019%

LQPPDRSCLPKI
Percentage Seq I: 0.029% | Percentage Seq II: 0.030% | Percentage Average: 0.029% | Counts Seq I: 125 | Counts Seq II: 13
